From the supplement of paper PMC10567573

Experiment: protein stability index of a GFP-peptide fusion (GPS, HEK-293T) (PSI 1-6); higher = more stable
Settings: c terminus: native
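Also: lentivirally expressed fusion library, cells FACS-sorted into six equal-sized GFP/DsRed ratio bins, PSI computed from sequencing read fractions per bin weighted by bin number.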

B1: POLD2 addF (peptide)
chain: CQPISFSGFGAEDDDLGGLGLGPF
protein stability index (parent: NP_006221.1): 3.13

B2: PSMB5 addF (peptide)
chain: DGWIRVSSDNVADLHEKYSGSTPF
protein stability index (parent: NP_002788.1): 3.79

B3: BEX2 addF (peptide)
chain: HSLRAVSTDPPHHDHHDEFCLMPF
protein stability index (parent: NP_116010.1): 3.66

B4: SNF8 addF (peptide)
chain: LPALFTDLYSQEITAEEAREALPF
protein stability index (parent: NP_009172.2): 4.24

B5: TRPA1 addF (peptide)
chain: EQRNSRWNTVLRAVKAKTHHLEPF
protein stability index (parent: NP_015628.1): 4.28
